Measured values as given in patent US20250026813A1 (published 2025).

B1: IMPI-029 (antibody, V domains shown)
VH: EVQLVESGGGLIQPGGSLRLSCAASGVTVSSNYMNWVRQAPGKGLEWVSVIYSGGSTYYADSVKGRFTISRDNSKNTLFLQMNSLRAEDSAVYYCARDLGPYGVDVWGQGTTVTVSS
VL: DIQLTQSPSFLSASVGDRVTITCWASQGISSYLAWYQQKPGKAPKLLIYAASTLQSGVPSRFSGSGSGTEFTLTISSLQPEDFATYYCQELNSYPLTFGQGTRLEIK
B2: IMPI-017 (antibody, V domains shown)
VH: EVQLVESGGGLIQPGGSLRLSCAAAGLTVSSNYMNWVRQVPGKGLEWVSVIYSGGSTYYADSVKGRFTISRDNSKNTLYLQMNSLRAEDTAVYYCARDLGTLGMDVWGQGTTVTVSS
VL: DIQLTQSPSFLSASVGDRVTITCWASQGISTYLAWYQQKPGKAPKLLIYAASTLQSGVPSRFSGSGSGTEFTLTISSLQPEDFATYYCQQLNSYLPTFGQGTKVEIK
B3: IMPI-047 (antibody, V domains shown)
VH: EVQLVESGGGLIQPGGSLRLSCAASGFTVSSNYMNWVRQAPGKGLEWVSVIYSGGSTYYADSVKGRFTISRDNSKNTLYLQMNSLRTEDTAVYYCARDLVAYGMDVWGQGTTVTVSS
VL: DIQLTQSPSFLSASVGDRVTITCWASQGISSYLAWYQQKPGKAPKVLIYAASTLQSGVPSRFSGSGSGTEFTLTISSLQPEDFATYYCQLLNSNPLTFGGGTKVEIK
B4: IMPI-060 (antibody, V domains shown)
VH: EVQLVESGGGLIQPGGSLRLSCAASGVTVSSNYMSWVRQAPGKGLEWVSVIYSGGSTFYADSVKGRFTISRDNSKNTLYLQMNSLRAEDTAVYYCARDLSYYGMDVWGQGTTVTVSS
VL: DIQLTQSPSFLSASVGDRVTITCWASQGISSYLAWYQQKPGKAPKLLIYAASTLQSGVPSKFSGSGSGTEFTLTISSLQPEDFATYYCQQLNSYPSSFGQGTKLEIK
B5: IMPI-005 (antibody, V domains shown)
VH: EVQLVESGGGLIQPGGSLRLSCAASGFTVSSNYMNWVRQAPGKGLEWVSVIYSGGSTYYADSVKGRFTISRDNSKNTLFLQMNSLRAEDSAVYYCARDLGPYGVDVWGQGTTVTVSS
VL: DIQLTQSPSFLSASVGDRVTITCWASQGISSYLAWYQQKPGKAPKLLIYAASTLQSGVPSRFSGSGSGTEFTLTISSLQPEDFATYYCQELNSYPLTFGQGTRLEIK
B6: IMPI-056 (antibody, V domains shown)
VH: EVQLVESGGGLIQPGGSLRLSCAASGLTVSSNYMNWVRQAPGKKLEWVSVIYSGGSTFYADSVRGRFTISRDNSKNTLFLQMNSLRAEDSAVYYCARDLGPYGVDVWGQGTTVTVSS
VL: DIQLTQSPSFLSASVGDRVTITCWASQGISSYLAWYQQKPGKAPKLLIYAASTLQSGVPSRFSGSGSGTEFTLTISSLQPEDFATYYCQQLNSYPLTFGQGTRLEIK
B7: IMPI-004 (antibody, V domains shown)
VH: QVQLVESGGGVVQPGRSLRLSCAASGFTFSSYGMHWVRQAPGKGLEWVAVIWYDGGNKYYADSVKGRFTISRDNSKNTLYLQMNSLRAEDTAVYYCARVNVLMGYGMDVWGQGTTVTVSS
VL: EIVLTQSPGTLSLSPGDKATLSCRASQSIISSFLAWYQQKPGQAPRLLIYGASSRATGIPDRFSGSGSGTDFTLTISRLEPEDFAVYYCQQYGSSLTFGGGTKVEIK
B8: IMPI-054 (antibody, V domains shown)
VH: EVQLVESGGGLIQPGGSLRLSCAASGLTVSSNYMSWVRQAPGKGLEWVSIIYSGGSTYYADSVKGRFTISRDNSKNTLYLQMNSLRAEDTAVYYCARLGGYYYYGMDVWGQGTTVTVSS
VL: DIQMTQSPSSLSASVGERVTITCQASQDIRNYLNWYQKKPGKAPKLLIYDSSNLETGVPSRFSGSGSGTDFTFTISSLQPEDIATYYCQQYDNLPITFGQGTRLEIK
B9: IMPI-055 (antibody, V domains shown)
VH: QVQLVQSGAEVKKPGASVKVSCKASGYTFTSYDINWVRQATGQGLEWMGWMNPNSGNTGYAQKFQGRVTMTRDTSINTAYMELSSLRSEDTAVYFCARGGRYCSDVTCYSGEPFDYWGQGTLVTVSS
VL: EIMLTQSPDFQSVTPKEKVTITCRASQSIGSSLHWYQQKPDQSPKLLIKFASQSISGVPSRFSGSGSGTDFTLTINSLEAEDAAAYYCHQSSSLPHTFGPGTKVEIK
B10: YANG-2203 (antibody, V domains shown)
VH: QVQLVQSGAEVKQPGASVKVSCRASGYALTSFYVHWVRQAPGQGLEWMGIIKPSGGDTIYAQNLQGRVTMTRDTSTNTFYVELSSLRSEDTALYYCAISGNTRAFEIWGQGTMVTVSL
VL: QSVLTQPPSVSAAPGQKVTISCSGSSSNIGNNFVSWYQQLPGMVPKLLIYANNKRPSGIPDRFSGSRSGTSATLGITGLQTGDEADYYCGTWDSSRSAVLFGGGTKMTVL
B11: YANG-2205 (antibody, V domains shown)
VH: QIQLVQSGAEVKKPGASVKFSCKTSGYTFTSYYMVWVRQAPGQGLEWMGIIKPSGGNTIYAQKFQGRVTMTRDTSTNTVYMDLSSLRSEDTAVYYCARTGDRAFDVWGHGTMITVSS
VL: QSVLTQPPSVSAAPGQKVTISCSGSSSNIGNNFVSWYQQFPGTAPKLLIYDNNKRPSGIPDRFSGSKSGTSATLGITGLQTGDEADYYCGTWDSSLGAGVFGGGTKLTVL
B12: YANG-2206 (antibody, V domains shown)
VH: QIQLVQSGAEVKKPGASVKLSCKTSGYTFTSYYMVWVRQAPGQGLEWMGIIKPSGGNTIFAQKFQGRVTMTRDTSTNTVYMDLNSLRSEDTAVYYCARTGDRAFDVWGHGTMVTVSS
VL: QSVLTQPPSVSAAPGQKVTISCSGSSSNIGNNYVSWYQQFPGTAPKLLIYDNNKRPSGIPDRFSGSKSGTSATLGITGLQTGDEADYYCGTWDSSLGAGVFGGGTKVTVL
B13: YANG-2204 (antibody, V domains shown)
VH: QMQLVQSGAEVKKPGASVKFSCKTSGYTFTNYYMVWVRQAPGQGLEWMGIIKPSGGNTIYAQKFQGRVTMTRDTSTNTVYMDLTSLRSEDTAVYYCARTGDRAFDVWGQGTMVTVSS
VL: QSVLTQPPSVSAAPGQKVTISCSGSSSNIGNNYVSWYQQLPGTAPKLLIYDNNKRPSGIPDRFSGSKSGTSATLGITGLQTGDEADYYCGTWDSSLGAGVFGGGTKLTVL
B14: YANG-2207 (antibody, V domains shown)
VH: QMQLVQSGAEVKKPGASVKISCKTSGYTFTNYYMVWVRQAPGQGLEWMGIIKPSGGNTIYAQKFQGRVTMTRDTSTNTVYLDLSSLRSEDTAVYYCARTGNRAFDVWGHGTMVTVSS
VL: QSVLTQPPSVSAAPGQKVTISCSGSSSNIGNNFVSWYQQFPGTAPKLLIYDNNKRPSGIPDRFSGSKSGTSATLGITGLQTGDEADYYCGTWDSSLGAGVFGGGTKLTVL
B15: YANG-2107 (antibody, V domains shown)
VH: QVQLQESGPGLVKPSGTLSLTCAVSGGSIRSSNWWIWVRQSPGKGLEWIGEIYHGGNTNYNPSLKSRVTLSVDKSKNQFSLKLSSVTAADTAVYYCARALYDIGGVFDIWGQGTMVTVSS
VL: QSALTQPASVSGSPGQSISISCTGTSSDIGGYNYVSWYQQHPGKAPKLMIYDVSERPSGVSNRFSGSKSGNTASLTISGLQAEDEGDYYCCSYAANSNVVFGGGTKLSVL
B16: YANG-2108 (antibody, V domains shown)
VH: QVQLQESGPGQVKPSGTLSLTCAVSGGSIRSSNWWIWVRQPPGKGLEWIGEIYHGGNTNYSPSLKSRVSISVDKSKNHFSLNLTSVTAADTAVYYCARALYDVGGVFDIWGQGTMVTVSS
VL: QSALTQPASVSGSPGQSITISCTGSSSDVGGYNYVSWYQQHPGKAPKLMIYDVSERPSGVSNRFSGSKSGNTASLTISGLQAEDEGDYYCCSYAANSNVVFGGGTKLSVL
B17: YANG-2111 (antibody, V domains shown)
VH: GVQLVESGGGLVQPGRSLRLSCAASGFTFDDYALHWVRQVPGKGLEWVSSISWNSDDLGYADSVEGRFTISRDNAKNSLYLQMSSLRTEDTALYYCVKDTRAHYDILAGYRGLDSWGQGTLVTVSS
VL: DIVMTQSPLSLPVTPGEPASISCRSTQSLLHSNGYNFLDWYLQKPGQSPQLLIYLGSNRASGVPDRFSGSGSGTDFSLKISRVEAEDIGIYYCIQGLQTPITFGQGTRLEIK
B18: YANG-2303 (antibody, V domains shown)
VH: QVQLVQSGAEVKKPGASVRVSCKVSGYTLPELAIHWVRQAPGKGLEWMGGFDPEDGETIYAQKFQGRVIMTEDTSTDTAYMDLSSLRSEDTAVYYCVKTWAAPGYNYGLDTWGQGTTVTVSS
VL: EIVLTQSPGILSLSPGESATLSCRASQSIASNYLAWFQQKPGQAPRLLIYGASSRAAGFPDRFSGSGSGTDFTLTIKRLEPEDSAVYYCQHYGSSPCSFGQGTNLEIK
B19: YANG-2208 (antibody, V domains shown)
VH: QIQLVQSGAEVRKPGASVRFSCKTSGYIFTNYYMVWVRQAPGQGLEWMGIIKPSGGNTIYAQKFQGRVTMTRDTSTNTVYMDLNNLRSEDTAVYFCARTGDRAFDVWGQGTMVTVSS
VL: QSVLTQPPSMSAAPGQKVTISCSGNSSNIGNNFVSWYRQFPGTAPKLLIYDNNKRPSGIPDRFSGSKSGTSATLGITGLQTGDEADYYCGTWDSSLSAGVFGGGTKLTVL
B20: YANG-2302 (antibody, V domains shown)
VH: QVQLVQSGAEVRKPGASVKVSCKVSGYTLPELAIHWVRQAPGKGLEWMGGFIPEDGDTIYAQKFQGRVTMTEDTSTDTAYMDLTSLRSEDAAVYYCTSGWAAPGYNYGMAVWGQGTTVTVSS
VL: EVVLTQSPGTLSLSSGERATLSCRASQSVSSNYLAWYQKKPGQAPRLLIYGASSRVTGIPDRFGGSGSGTDFTLTISRLEPEDFAVYYCQQYDASPYSFGQGTKLDIK
B21: YANG-2301 (antibody, V domains shown)
VH: QVHLIQSGAEVKKPGASVKVSCKVSGYTLIEVSVHWVRQAPGKGLEWMGGFDPEAAETIYAQKFQGRVTMTEDTSTDTAYMDLSSLKSEDSAVYYCAIGPAVTGRNSGEYYYYYGMDVWGQGTTVTVAS
VL: EIVMTQSPATLSVSPGERATLSCRASQSVNSNLAWYQQKPGQAPRLLIYAVSTRATGLPARFSGSGSGTEFTLTISSLQSEDFVVYYCHQYNNWPLTFGGGTKVEIK

Each binder was assayed against full soluble spike trimer of SARS-CoV-2 virus (stabilised, in-house) (SARS-CoV-2, UniProt P0DTC2 14-1208; P10104 458-484) (assay: not given).
B1 showed an IC50 of 3.31 nM. For B2, the IC50 was 3.15 nM. With B3 the IC50 was 7.3 nM. In the case of B4, the IC50 is reported as 5.26 nM. B5 showed an IC50 of 13.1 nM. Binder B6 has an IC50 of 3.73 nM. For B7, the IC50 was 4.09 nM. B8 showed an IC50 of 11.6 nM. Binder B9 has an IC50 of 4.5 nM.

The binders below were run against SARS-CoV-2 spike protein bearing furin mutation and truncation in retention sequence, on pseudovirus (SARS-CoV-2, UniProt P0DTC2 14-1255) (assay: cell-based or functional assay).
With B10 the “pseudovirus neutralisation IC50” value was 5.45 nM. With B11 the “pseudovirus neutralisation IC50” value was 3.35 nM. With B12 the “pseudovirus neutralisation IC50” value was 3.96 nM. B13 was tested, and the “pseudovirus neutralisation IC50” value was 3.3 nM. With B14 the “pseudovirus neutralisation IC50” value was 2.59 nM. B15 was tested, and the “pseudovirus neutralisation IC50” value was 0.3 nM. With B16 the “pseudovirus neutralisation IC50” value was 0.27 nM. For B17, the “pseudovirus neutralisation IC50” value was 1.33 nM. With B18 the “pseudovirus neutralisation IC50” value was 0.48 nM. B19 was tested, and the “pseudovirus neutralisation IC50” value was 4.68 nM. For B20, the “pseudovirus neutralisation IC50” value was 0.61 nM. With B21 the “pseudovirus neutralisation IC50” value was 0.53 nM.
